According to patent US20190127462A1 (UNIVERSITY OF TSUKUBA, published 2019):

T1: human DNAX accessory molecule-1 (DNAM-1) protein (human, UniProt Q15762 19-336)
T1 construct: whole, on cells; Expressed on BW5147 mouse lymphocyte cells (DNAM-1/BW) or present on human peripheral blood lymphocytes / CD8+ T cells; also called CD226; human DMAM-1 protein
T1 sequence (looked up): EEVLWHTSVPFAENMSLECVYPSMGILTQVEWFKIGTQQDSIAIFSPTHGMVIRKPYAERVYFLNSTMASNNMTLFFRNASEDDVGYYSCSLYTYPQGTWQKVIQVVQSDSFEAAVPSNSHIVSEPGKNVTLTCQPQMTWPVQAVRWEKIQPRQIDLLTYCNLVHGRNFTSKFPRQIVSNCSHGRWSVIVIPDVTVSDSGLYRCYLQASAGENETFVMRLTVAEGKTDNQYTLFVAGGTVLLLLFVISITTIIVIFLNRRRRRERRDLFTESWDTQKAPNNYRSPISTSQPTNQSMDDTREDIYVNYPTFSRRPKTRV

B1: anti-human DNAM-1 monoclonal antibody No. 3 (antibody, V domains shown)
VH: EISCKASGYTFTNYWLGWVKQRPGHGLEWIGDIYPGGGYTNYNEKFKGKATLTADTSSSTAYMQLSSLTSEDSAVYFCANAYYRYKGFAYWGQGTLVTVSA
VL: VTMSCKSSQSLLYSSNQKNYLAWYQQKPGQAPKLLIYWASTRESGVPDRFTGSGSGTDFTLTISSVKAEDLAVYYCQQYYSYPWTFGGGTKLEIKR
notes: Mouse hybridoma monoclonal antibody
B2: anti-human DNAM-1 monoclonal antibody No. 2 (antibody, V domains shown)
VH: SQSLSLTCTVTGYSITSDYAWNWIRQFPGNKLEWMGYISYSGTTTYNPSLKSRISITRDTSKNQFFLQLNSVTTEDTATYYCAELSMDYWGQGTSVTVSS
VL: DIVLSQSPAILSVSPGERVSFSCRASQSIGTSIHWYQQRTNGSPRLLIKYASESISGIPSRFSGSGSGTDFTLSINSVESEDIADYYCQQSRSWPLTFGAGTKLELKR
notes: as for B1
B3: anti-human DNAM-1 monoclonal antibody No. 1 (antibody, V domains shown)
VH: SQSLSLTCSVTGYSITSGYYWNWIRQFPGNKLEWMGYISYDGSNNYNPSLKNRISITRDTSKNQFFLKLNSVTTEDTATYYCARAYYGNYVGYFDVWGAGTTVTVSS
VL: RVTITCKASQSVSNDVAWYQQKPGQSPKLLIYYASNRYTGVPDRFTGSGYGTDFTFTISTVQAEDLAVYFCQQDYSSPLTFGAGTKLELKR
notes: as for B1
B4: anti-human DNAM-1 monoclonal antibody No. 4 (antibody, V domains shown)
VH: KWGLSEISCKASGYTFTDYNMHWVKQSHGKSLEWIGYIYPYNGGTGYNQKFKSKATLTVDNSSSTAYMELRSLTSEDSAVYYCAGYWYFDVWGAGTTVTVSS
VL: EKVSITCKASQDVGTAVAWYQQKPGQSPKLLIYWASTRHTGVPDRFTGSGSGTDFTLTISNVQSEDLADYFCQQYSSYPWTFGGGTKLEIKR
notes: as for B1

How the values were obtained:
[1] = target: T1, human DNAX accessory molecule-1 …; test: flow cytometry on 1x10^5 DNAM-1/BW cells
[2] = target: T1, human DNAX accessory molecule-1 …; test: flow cytometry; 1x10^5 DNAM-1/BW cells pre-saturated with 1000 ng hCD155-Fc (competitor); remaining hCD155-Fc detected
Method: After DNAM-1/BW cells reacted with the hCD155-Fc protein in advance had been reacted with a specific one of the monoclonal antibody No. 1 to No. 6 diluted serially in Test example 6, the hCD155-Fc protein bound to the DNAM-1 protein present on the surfaces of the DNAM-1/BW cells was detected. The detection of the hCD155-Fc protein was conducted using an anti-human IgG antibody. The reaction was made on ice for 30 minutes.
It was also confirmed that, in the range where the concentration of the monoclonal antibody reacted with the DNAM-1/BW cells was low, the reidues of hCD155-Fc protein after the DNAM-1/BW cells had been reacted with the monoclonal antibody No. 3 was smaller than that of hCD155-Fc protein after the DNAM-1/BW cells had been reacted with the monoclonal antibody No. 2. This proves that, in the range where the concentration of the monoclonal antibody reacted with the DNAM-1/BW cells was low, the monoclonal antibody No. 3 had higher activity of inhibiting the interaction between the DNAM-1 protein and the CD155 protein than the monoclonal antibody No. 2. In the range where the concentration of the monoclonal antibody reacted with the DNAM-1/BW cells was high, the difference in the above reactivity between the monoclonal antibody Nos. 2 and 3 was small. The amount of monoclonal antibody No. 3 required for completely inhibiting the interaction between the DNAM-1 protein and the CD155 protein was 300 ng.

Binder	minimum amount required for saturating human DNAM-1 on 1x10^5 DNAM-1/BW cells [1]	amount required for completely inhibiting the interaction between the DNAM-1 protein and the CD155 protein [2]
B1	100 ng	300 ng
B2	50 ng	300 ng
B3	30 ng	100 ng
B4	100 ng	1000 ng
